According to paper PMC11934139:

Biological target: αCRP scFv-His6 (LA13-IIE3)
Test: BLI; αCRP scFv (2 μg/mL) immobilised on Octet Ni-NTA biosensors; CRP at 250, 125, 62.5, 15.6 and 7.8 nM; HBS Kinetics Buffer (1% heat-inactivated BSA, 0.2% Tween 20, 10 mM HEPES pH 7.4, 150 mM NaCl), 30 °C; two-state reaction model

- Kd: 588 nM
B1: human C-reactive protein (natural protein)
chain: QTDMSRKAFVFPKESDTSYVSLKAPLTKPLKAFTVCLHFYTELSSTRGYSIFSYATKRQDNEILIFWSKDIGYSFTVGGSEILFEVPEVTVAPVHICTSWESASGIVEFWVDGKPRVRKSLKKGYTVGAEASIILGQEQDSFGGNFEGSQSLVGDIGNVNMWDFVLSPDEINTIYLGGPFSPNVLNWRALKYEVQGEVFTKPQLWP
